From patent US20230047413A1 (Janssen / Centocor, published 2023) come the findings set out here.

Experiment [1] concerns the target T1, PHF-tau (paired helical filament tau isolated from Alzheimer's disease brain) (human, UniProt P10636-8 2-441, limits assumed, hyper-phosphorylated, aggregated; sites not listed for the preparation).
T1 construct: also called enriched PHF-tau; ePHF-tau
Kind of experiment: SPR ProteOn, PHF-tau capture-coupled via HT7, bivalent model; lower end of range. As for the experimental part: (§1) Affinity matured monoclonal antibodies were tested for binding to PHF-tau isolated from Alzheimer's disease brain.
(§2) A GLC sensor chip was covalently immobilized with a mouse anti-tau antibody, HT7 (ThermoFisher, catalog# MN1000) using the vendor recommended protocol for amine-coupling chemistry (˜5000 response units, RU). The coupling buffer was 10 mM, pH 4.5 sodium acetate. PHF-tau was prepared by 2-times centrifugation at 5000×g in 5° C. for 10 min. […] After capture-coupling, the surface was activated and deactivated to generate a homogenous PHF-tau surface for antibody binding studies. The anti-tau antibodies and their Fabs (prepared in running buffer, 0.024-75 nM at 5-fold dilutions) were injected at 50 μL/min over the PHF-tau surface to measure binding. The association and dissociation profiles were monitored for 4 minutes and 2 hours, respectively. After dissociation, the sensor chip was regenerated using multiple injections of 10 mM Glycine pH 2.0 and the running buffer. A reference surface (without any PHF-tau) was used to monitor non-specific binding of the injected mAbs or Fabs. HT7 antibody was used as a positive control. The binding sensorgrams for mAbs were fit using a bivalent binding model where the apparent affinity or avidity-driven binding (KD) was reported as the ratio of off-rate and on-rate (koff/kₒₙ). […]

Experiment [2] concerns the target T1, PHF-tau (paired helical filament tau …). Kind of experiment: SPR ProteOn, PHF-tau on chip.
Experiment [3] shares this target. Kind of experiment: SPR ProteOn, PHF-tau capture-coupled via HT7, bivalent model. As for the experimental part: as §1
A GLC sensor chip was covalently immobilized with a mouse anti-tau antibody, HT7 (ThermoFisher, catalog# MN1000) using the vendor recommended protocol for amine-coupling chemistry (˜5000 response units, RU). The coupling buffer was 10 mM, pH 4.5 sodium acetate. PHF-tau was prepared by 2-times centrifugation at 5000×g in 5° C. for 10 min. […] After capture-coupling, the surface was activated and deactivated to generate a homogenous PHF-tau surface for antibody binding studies. The anti-tau antibodies and their Fabs (prepared in running buffer, 0.024-75 nM at 5-fold dilutions) were injected at 50 μL/min over the PHF-tau surface to measure binding. The association and dissociation profiles were monitored for 4 minutes and 2 hours, respectively. After dissociation, the sensor chip was regenerated using multiple injections of 10 mM Glycine pH 2.0 and the running buffer. A reference surface (without any PHF-tau) was used to monitor non-specific binding of the injected mAbs or Fabs. HT7 antibody was used as a positive control. The binding sensorgrams for mAbs were fit using a bivalent binding model where the apparent affinity or avidity-driven binding (KD) was reported as the ratio of off-rate and on-rate (koff/kₒₙ). A 1:1 Langmuir binding model was used for kinetics analysis of Fabs.

Experiment [4] deals with T2, tau phospho-peptide of the direct ELISA of Example 11.
T2 construct: also called pT217 peptide; pT212/pT217 peptide
Kind of experiment: direct ELISA, peptide coated. As for the experimental part: (§3) Binding to tau phospho-peptide was analysed by ELISA where peptide (10 ng/mL) was directly coated to the plate overnight. […] After incubation with antibodies, plates were washed and 50 μL per well of HRPO labelled anti-Fab antibody (Jackson Immunoresearch laboratories) (diluted 1:10000 in blocking buffer). After another washing step detection was performed with “One step” TMB (Thermo Scientific) according to the manufacturers' instructions. Plates were analysed in EnVision® 2102 Multilabel Reader (Perkin Elmer, Waltham, Mass., USA). Binding curves were generated using GraphPad Prism7.0 software.

Experiment [5] addresses T2, tau phospho-peptide of the direct ELISA …. Kind of experiment: direct ELISA on plate-coated tau phospho-peptide (10 ng/mL), detection with HRPO-labelled anti-Fab antibody. As to the method: as §3
Background: An ELISA detects its analyte on a solid surface through an enzyme-linked reagent.

For experiment [6], the target named is T1, PHF-tau (paired helical filament tau …). Kind of experiment: SPR ProteOn, PHF-tau capture-coupled via HT7, bivalent model; lower end of range; lower end of range. As for the experimental part:
as §1, §2

Experiment [7] has the same target. Kind of experiment: SPR ProteOn, PHF-tau capture-coupled via HT7, bivalent model; upper end of range. As for the experimental part:
as §1, §2

The target is the same in experiment [8]. Kind of experiment: SPR ProteOn, PHF-tau capture-coupled via HT7, bivalent model; upper end of range; upper end of range. As to the method: as §1, §2

T1 sequence (P10636 other isoform, or with tags, fused parts or gaps limits assumed): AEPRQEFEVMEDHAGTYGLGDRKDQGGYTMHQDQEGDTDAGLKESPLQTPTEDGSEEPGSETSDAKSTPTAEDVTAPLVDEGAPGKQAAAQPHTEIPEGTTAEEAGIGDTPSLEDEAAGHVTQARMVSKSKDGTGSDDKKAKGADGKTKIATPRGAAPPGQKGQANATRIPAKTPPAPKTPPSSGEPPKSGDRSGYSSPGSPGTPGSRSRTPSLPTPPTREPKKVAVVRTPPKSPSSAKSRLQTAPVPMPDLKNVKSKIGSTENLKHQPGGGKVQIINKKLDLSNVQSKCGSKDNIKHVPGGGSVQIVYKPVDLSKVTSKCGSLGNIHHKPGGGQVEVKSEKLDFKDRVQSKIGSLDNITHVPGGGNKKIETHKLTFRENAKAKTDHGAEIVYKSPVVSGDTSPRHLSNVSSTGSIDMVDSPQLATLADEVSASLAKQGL
T2 sequence (main, as listed by the source): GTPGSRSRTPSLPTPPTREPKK

B1: B711 (antibody, human IgG1, kappa, V domains shown)
VH: QVQLVESGGGVVQPGRSLRLSCAASGFTFTSYAMSWVRQAPGKGLEWVASITKGGNTYYADSVKGRFTISRDNSKNTLYLQMNSLRAEDTAVYYCARGWGIYGWFAYWGQVTLVTVSS
VL: DIQMTQSPSSLSASVGDRVTITCKASQDINRWLNWFQQKPGKAPKSLIYRANRLLDGVPSRFSGSGSGTDFTLTISSLQPEDFATYYCLQYDEFPLTFGQGTKLEIKR
notes: also called PT1B711
Regarding B1, the Kd is 1.6 pM in experiment [1], 1.8 pM in experiment [3] and 2.1 pM in experiment [7]. Also, the koff in experiment [1] stood at 1.08e-05 s⁻¹; in experiment [3], 1.13e-05 s⁻¹; in experiment [7] it was 1.17e-05 s⁻¹. Further, the “fold improvement in on-rate compared to the parent antibody (B296)” value in experiment [2] came to 3 fold. Besides, the kon in experiment [3] was 6.17e+06 M⁻¹ s⁻¹; in experiment [6], 5.72e+06 M⁻¹ s⁻¹; in experiment [8], 6.61e+06 M⁻¹ s⁻¹. The same molecule returned an EC50 in experiment [4] of 70.7 pM. In addition, the “EC50 (read off the curve)” value in experiment [5] is ~40 pM.

Usually koff stands for the first-order rate constant of dissociation. Read a low koff as a long-lived complex. Usually kon stands for the rate constant with which the complex forms. A higher kon goes with faster complex formation. For orientation: EC50 means the concentration that produces a half-maximal response. Higher therefore signals weaker potency. A word on the EC50 (read off the curve): it is the midpoint of the concentration-response curve. A high value points to a need for much substance.
